From PMC6459735 (Journal of biomolecular structure & dynamics, 2019) come the findings set out here.

This data set deals with the molecule itself. The data set can be described thus: crystal structure.

B1: human Caprin-2 fragment (residues 199-329), dimerization domain (domain or fragment)
chain: GPSSPSQRREHMLKLEAEKKKLRTILQVQYVLQNLTQEHVQKDFKGGLNGAVYLPSKELDYLIKFSKLTCPERNESLSVEDQMEQSSLYFWDLLEGSEKAVVGTTYKHLKDLLSKLLNSGYFESIPVPKNAKEKEVP
modifications: Se-Met labelled (L-seleno-methionine in place of methionine) in the crystal used for the structure
For orientation: stoichiometry N means the number of molecules, sites or subunits per partner or assembly. For the protein B1, the “stoichiometry N” value came to 2.
